Measurements taken from the DeepSol protein solubility set.

experiment: soluble on expression in E. coli; label from the status in PepcDB or PDB records

Row | Sequence | soluble on expression in E. coli
1 | MRHVSNGDPVRVVIVTDGAYGAPAESGDYAQTRRRESTRAAAILGYGAPEFWNLPDRGLEYGERLIQRVLTAMEDHAAELVYAPSWWEVHPDHRVLALAATEAVRRCTRPLRLAMYEVGVPLQPNALLDITDLAERKASAVACFSSQLAQQDYDEQIASLNRFRTYTLPRTVRAAEGYLVLAAEELRNRIPRMMTQKDRLAVRGETGDTAATPLVSVIIPSMDGPRLKEALDSVALQTYPRIEAVVIDAKGEGHTPLPRWCGRFPLRFIPSDISLSRGRAADVGLEHAEGDYLVFLGEDDVFQPGDVASLVAEAARKQGTGLCSHADRRMTVFSGGVVDGSPRTGKPGKPAFLPLHAVLFDRSLAELRCRFDGDANVPEDGDFWDQAMQHVASIHPGACRHGHGLPGGEAGRHTIVRLPPWTSPAPLPPGASLARTPHPTERDSLRRRIQRAGRRIYETPPRGLTDALVRTAYRIWARLSSDSMITNDGKGTLEHHHHHH | not soluble
2 | MGSSHHHHHHSSGLVPRGSHMAAMMSLNDFLSSVLPVSEQFEYLSLQSIPLETHAVVTPNKDDKRVPKSTIKTQHFFSLFHQGKVFFSLEVYVYVTLWDEADAERLIFVSKADTNGYCNTRVSVRDITKIILEFILSIDPNYYLQKVKPAIRSYKKISPELISAASTPARTLRILARRLKQSGSTVLKEIESPRFQQDLYLSFTCPREILTKICLFTRPASQYLFPDSSKNSKKHILNGEELMKWWGFILDRLLIECFQNDTQAKLRIPGEDPARVRSYLRGMKYPLWQVGDIFTSKENSLAVYNIPLFPDDPKARFIHQLAEEDRLLKVSLSSFWIELQERQEFKLSVTSSVMGISGYSLATPSLFPSSADVIVPKSRKQFRAIKKYITGEEYDTEEGAIEAFTNIRDFLLLRMATNLQSLTGKREHRERNQPVPASNINTLAITMLKPRKKAKALPKT | soluble
3 | MSDHFVSERQALILAQLRQSGRVLAQDLAQNFGVSEDTVRRDLREMAARGECLRVYGGALLSDSTTVPLKTRITEDADRKATLARAVVPLIEPGMVVFIDAGSTNLAIARAIPAGLNLTVVTNTPAIAADLTGRADIDLVLIGGKVDPAVGAAIDAMALRQLELMRPDLCVLGVCGVAAETGLSADVFEDAVFKRLACSASQRVIAAITTEKLGHKAAFHVHDFSPPLCLVLERDADRALVESLSAQGVDVYCGEDDAAPFSHGQVLEHHHHHH | soluble
4 | MGSDKIHHHHHHMHININMDWLSAKGLPILGLDISTTAIKLVELSDAGKGMLRVERYIIEPLPKDAVSDGNIANLDQVADTLRHAWKTLGSRVKNVALALPSSAVITKKILAPASLTGIELENQVEAEANQVIPFALDEVNLDFQVLGPSPGSPDDMQILLAAARKEKVEDRVAAVEAAGLKALIMDVESYATQAAYEQIAHLLPNGGAGQTVAIIDVGAQNMHINILNDNESVYLREHGFGGNQLNNEIARRYGMSGEEAENAKRKGSLPESYELEVLQPYSETLAMEIGRALQLFTTSTQYRKIDQILLAGGGAMIPGLDEVVAQRTGTPTLVVNPFANMAVASKVRPQALTADAPSLFVACGLAMRRFDSQ | not soluble
5 | MGSSHHHHHHSQDMDKNELVQKAKLAEQAERYDDMAACMKSVTEQGAELSNEERNLLSVAYKNVVGARRSSWRVVSSIEQKTEGAEKKQQMAREYREKIETELRDICNDVLSLLEKFLIPNASQAESKVFYLKMKGDYYRYLAEVAAGDDKKGIVDQSQQAYQEAFEISKKEMQPTHPIRLGLALNFSVFYYEILNSPEKACSLAKTAFDEAIAELDTLSEESYKDSTLIMQLLRDNLTLWTSDTQGDEAEAGEGGEN | soluble
6 | MEKLAIGVDVGTTQAKAVAFQANGTVVASSYVRYPLIQETEGMAEQDPETLFQAVVNCIRTVTQQVKNQPIGLISFASAMHGLIAMDAQGRPLTQVITWADTRASDYAEALKETPAAQLFYQLTGMPVHPMAPLYKIRWLQENQPAVAQSAAKFIGIKDYIFYRFFGEYWTDYSSASGMGLFNIHTRQWETSILAYLSIEEEQLPKVAPSTFIFPALAPSWQEMLGVEEETVLVLGGADGPLSNLGLGALGMGVATLTVGTSGALRYIVEEPFLHPQGETFCFALDEQHWVIGGASSNGAVALDWASQTIFAEERQQAIQNGTNLYDPIMAKIATVPAGANGLLFHPYLLGERAPLWNAEASASFIGLRKNHHAGHLARAVVEGICFNLKTILEDLKQLGGPVQEIRATGGFADSPVFRQIMADVLGETLSFTDSTEASALGAVLLGWQGLGQLPNLQAAAQQVLIHETVTPRADQLLVYQELYPVFQETQQVLAQSYQKLAEFRK | not soluble
7 | MPTVPIPARKAATTFDTPSKHERIEVKPPITRFIRRAITRVFGVWSHISTQVVRQWGWYPRVEPYVGYGTGDYSRLICRTVYAPKHAQSGELIRGIRGMLAVPAPRTHVQASIDDMPLNTVQIGVSEVYDKVDRTRDLGSEYAISDSAGYLDLVAEHRLVPGIHRVSYSVANRKPVSANLYTIPASAKVGIISDVDDTIMITQAPVPWKAAYNLLFLDPKKKASVPGMSVLFTRIADLFPGAPFFYLSTSPWNVESSIRNFITDHGFPEGPLLLRDLDPRPKTFVPTGPQHKLEFAEQLMADFPDMKFILVGDDGQKDPTTYATIARRYPGRVLAIVIRELSPRESTGLASVTGLTSTQPTPVTDVPVFTGTTGSNILKTMLPYLKTVLRLEHHHHHH | not soluble
8 | MGSDKIHHHHHHENLYFQGMWKSISQVLAEQFGAYYFIKHKEKLYSGEMNEIWLINDEVQTVFVKINERSYRSMFRAEADQLALLAKTNSINVPLVYGIGNSQGHSFLLLEALNKSKNKQSSFTIFAEKIAQLHQIQGPDKYGLDFDTWLGPIYQPNDWQTSWAKFFSENRIGWQLQICKEKGLIFGNIDLIVQIVADTLSKHNPKPSILHGNLWIENCIQVDDKIFVCNPACYWGDRECDIAFSSLFEPFPTNFYQRYNEIYPLEEGYLERKLIYQLYYLLNFSYRYYNKKQSYVSLTQKLINQILHKIDK | soluble
9 | GPGSMVTPEQAALIEGAFRSMDRDGTGLVRLEDIFRVFDDSRHPRVRDGELAPAATRDMLMHQFGATAQAHGGVSFDVFMRFHERMAEDAAVAKVNDKELFLTDTIIGVWRLGTLLQPTLIRPLFPVNVRPSGLYATQYMSLVWVDEVAGPGSFVVHVVRDVVRPIFSRGDLPPQLRGMFAYPTELAGMKIIEERLQIATQRWLDFVWEYEEGKHAAVPGIISARVDPDTLPQYLRDMIVEHDVAKAIPSLFFVPTSVAVNPMYKRSSEEYGYGVPEEVKRMSRWKDLTYSGQACGLIYHGRVGKFTRERLNAPVQDVASAMNI | not soluble
10 | MNTMKNVTKRSFQTIAIVGKPRHDNALETHLAVYNWLKDRHYSVLVEEKIAEQLQLPNGKRIEEIGQIADLVIVIGGDGNMLGMARSLAKYQVPLIGINRGNLGFLTDIAPQSAFEQLYSCLEKGEFIIEQRFLLEAQIEQNGKIISANNALNEVAIHPTQVARIIEFEVYIDSKFAFSQRSDGLIIATPTGSTAYSLSAGGPILTPNMNAIALVPMHPHALSSRPLVIDGDSHISLRFAQYNQPNLEISCDGQDDLPFTPEDRIIVRKSPDILHLLHLKDYNYFTVLGSKLGWSSKLF | soluble
11 | MDNKSEKVTVNKEELRKRLTPVQYQVTQEAGTERPFTGCYNKHYEKGVYQCIVCHQDLFSSETKYDSGCGWPAFNDVLDKGKVTLHRDASIPGGNILLLIAHPERIRTEVRCARCNAHMGHVFEDGPKPTRKRYCINSASIEFVNADPATSSPPVATPTAAPIAQQLEHHHHHH | soluble
12 | MGSDKIHHHHHHMQSFKIIKPIHILTPYVRYYWILEDGADVSVSERTLPTGCIQLVFHRGKRLLLVGKKESQPQAFICGQCLNFSDVMSAGKIEMITVVFQPYAARAILQLPLKFFYGELIAVDAIADLELSILSRKVIEADDHETCIRLIEQFLIHRLYRFEGYEYNLKRISAVLHQINEQAKTNISELSETACLSSKQFNRIFLDYVGATPKEFLRIVRMQRALFKVQQNPSISFAQLAYECGFSDQSHMIKEFKLFSGYTPTEYLSLCAPYSDYFSE | not soluble
13 | MSIYTLGIDVGSTASKCIILKDGKEIVAKSLVAVGTGTSGPARSISEVLENAHMKKEDMAFTLATGYGRNSLEGIADKQMSELSCHAMGASFIWPNVHTVIDIGGQDVKVIHVENGTMTNFQMNDKCAAGTGRFLDVMANILEVKVSDLAELGAKSTKRVAISSTCTVFAESEVISQLSKGTDKIDIIAGIHRSVASRVIGLANRVGIVKDVVMTGGVAQNYGVRGALEEGLGVEIKTSPLAQYNGALGAALYAYKKAAKSAWSHPQFEK | soluble
14 | MCMSATLSRPGCGACCIAPSISSPIPGMPQGKPAGSRCVQLDDDMRCRIFGHPDRPDVCSSLQPSTELCADDREQAMTWLLKLEELTLPARLEHHHHHH | not soluble
15 | MSYNSIRLPQDLPIYYKNFFPVKPFTKWLCYGQNYGDYFNRREFTFILADDVHIRYRSYNDEHSFVKALSSTNPEKLDIGAVYNHEPINNKRYTDYQAVERELVFDIDLTDYDPVRNCCKDATVCPKCWKFMVLAVRILDFQLEEMFNFKARMWVFSGRRGVHCWVGDKKARMLNNNQRSAIATRLNLFKKNGQCEVTEGRAKLTRVPPTVRDAFNVALKDGVFEKMIYEQGWLDNDRFIIDYQYMSEFGRDDLRRISESFKTPQERWHMLRGLFDNDYRKTLSQNDGLLDFVNNARSRPKKVLLYFVLQRCYPRLDANVTTGTNHLLKSPFCIHPKTGNVAVPLNVEKIGEFDVSKCPRIDHVVEELSSLLTERGNDGDEDSKNRKFLAYKHGALSPYVENFEMFVSACIS | not soluble
16 | MGSDKIHHHHHHMQHDDQPLPQTAPHGRVISHLGETDTDDATLLASIKTRLRQHNDRSAAEMEHLLQLVDALWAMELGRFLLRNRGLNANWTHQLVTYQAGTLVQQTTPALEYELFEKTPAVLATRERFGIFRTQLQALLRPGMTLASLPCGWMADVLSLDYGQCPDVRLIGIDLDPQALDGALRLAQQYGLEGQLTLQREDAWAPGEPNSVDVLSSNGLNLYEPDDARVIALYRAFFDRLRPGGTLVASFLTPPPSLCAESPWKLDLIDGAALVLQSQVFIDVVQARWASFRTHAQTRTQLESAGFTDVRFIDDRASIFPTVIARKPMSD | not soluble
17 | MGSDKIHHHHHHMWAYESVFYQIYPLGFCGAPFENDGVLEHRILKVNDWIPHIKKLGADAIYFSPVFESDTHGYNTRDYTKIDTRLGTNEDFAQVCDNLHKDGIKVVLDGVFNHVGRGFWAFQDVLKNRESSPYVNWFGRIAFDGNSNYNDGLWYEGWEGNYDLVKLNLRNEDVIQHIFSAIKGWVDEFDIDGLRLDVAYCLDHDFLRRLREFCDSLKPDFFLVGETLHGDYNQIMNDAMLHSVTNYECYKGLYSSFNSMNMFEINHSLLRQFGPEQWTLYKGKHLLSFVDNHDVTRVASILTNEKHLPLIYALAFGMPGIPCVYYGSEWGEKAKKEDGDPALRACFEAPQCNELTEWISKLAEAKKQSKALCYGNFYSVVLTNGQCVFGRECDGEKVFVCINAADQPFFAGFDMGKGDATDLITGEQVTLNGGLELPPYSAYFLR | not soluble
18 | MEKEKKGAKHELDLSSILQFVAPGTPLRAGMENVLRANTGGLIVVGYNDKVKEVVDGGFHINTAFSPAHLYELAKMDGAIILSDSGQKILYANTQLMPDATISSSETGMRHRTAERVAKQTGCLVIAISERRNVITLYQENMKY | not soluble
